Measured values from patent US20260274980A1 (BIOARCTIC, published 2026).
Values belong to the binder of their own block, whether it stands above or below them.

Assays:
[1] = molecular target: T1, truncated hTfR1 of SEQ ID NO:86 (human, UniProt P02786 122-760); test: SPR (Biacore 8K), single-cycle kinetics on immobilised hTfR1 (SEQ ID NO:86), as in Example 12 [column VH first, row Human TfR1]
T1 construct: Given only as 'truncated hTfR1'; amine-coupled to a CM5 chip for SPR; also called human TfR1

[2] = molecular target: T2, truncated cTfR1 of SEQ ID NO:87 (cynomolgus, UniProt Q5RDH6 122-760 (Pongo abelii entry), limits assumed); test: SPR (Biacore 8K), single-cycle kinetics on immobilised cTfR1 (SEQ ID NO:87), as in Example 12 [column VH first, row Cynomolgus TfR1]
T2 construct: Printed only as 'truncated cTfR1'; amine-coupled to a CM5 chip for SPR; also called cynomolgus TfR1
T2 chain: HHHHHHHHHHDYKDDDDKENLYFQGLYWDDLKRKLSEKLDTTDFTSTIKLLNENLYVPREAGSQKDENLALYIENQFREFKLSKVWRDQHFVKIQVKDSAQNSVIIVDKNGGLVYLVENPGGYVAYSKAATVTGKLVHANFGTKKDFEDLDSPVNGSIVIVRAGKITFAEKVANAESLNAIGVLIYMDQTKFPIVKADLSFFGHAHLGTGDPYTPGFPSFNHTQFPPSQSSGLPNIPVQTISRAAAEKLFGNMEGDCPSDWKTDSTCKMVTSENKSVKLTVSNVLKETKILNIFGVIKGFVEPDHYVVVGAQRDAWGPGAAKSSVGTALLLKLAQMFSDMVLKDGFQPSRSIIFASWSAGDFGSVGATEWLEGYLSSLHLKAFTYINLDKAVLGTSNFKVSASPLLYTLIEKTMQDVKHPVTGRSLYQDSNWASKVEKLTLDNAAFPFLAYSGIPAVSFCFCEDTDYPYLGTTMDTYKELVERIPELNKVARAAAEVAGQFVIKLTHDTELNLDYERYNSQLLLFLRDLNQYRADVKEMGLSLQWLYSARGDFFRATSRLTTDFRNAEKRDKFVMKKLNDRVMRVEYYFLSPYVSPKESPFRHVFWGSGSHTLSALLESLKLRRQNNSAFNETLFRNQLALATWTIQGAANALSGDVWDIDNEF

[3] = molecular target: T2, truncated cTfR1 of SEQ ID NO:87; test: SPR (Biacore 8K), single-cycle kinetics on immobilised cTfR1 (SEQ ID NO:87), as in Example 12 [column VL first, row Cynomolgus TfR1]
[4] = molecular target: T3, human transferrin receptor 1 (hTfR1) on cell surfaces (human, UniProt P02786 1-760); test: flow cytometry on K562 cells (hTfR1 on the surface), Fc receptors blocked, overnight at 4 °C, detection with anti-human IgG-Alexa Fluor 488
T3 construct: Endogenous receptor on hCMEC/D3, THP-1, K562 and Ramos cells; also called CD71; endogenous hTfR1
Method: Fcγ receptors were blocked using Fc receptor blocker (Innovex biosciences, #NB309-4X-40) for 30 min at 4° C., after which the cells were washed in PBS. […] The plate was incubated at 4° C. overnight. […] Staining was carried out for 30 min at 4° C. […] The cells were finally resuspended in 200 μl PBS with 1% BSA and acquired using a BD FACSLyric flow cytometer system (BD Biosciences). Samples were analyzed using flowJo software (BD Biosciences).

binding result [1]: binds
binding result [2]: binds
B1: mAb158-Gen2D-h26D3 VH first (bispecific antibody, human IgG1, kappa)
heavy 1: not shown
heavy 2: not shown
light: DIVMTQAPLSLPVSLGDQASISCRSSQSIVHSNGNTYLEWYLQKPGQSPKLLIYKVSNRFSGVPDRFSGSGSGTDFTLKISRVEAEDLGIYYCFQGSHVPPTFGGGTKLEIKRTVAAPSVFIFPPSDEQLKSGTASVVCLLNNFYPREAKVQWKVDNALQSGNSQESVTEQDSKDSTYSLSSTLTLSKADYEKHKVYACEVTHQGLSSPVTKSFNRGEC
notes: Knob-into-hole antibody; also called Gen 2D construct, VH first

binding result [3]: binds
EC50 (read off the curve) [4]: ~30 nM
B2: mAb158-Gen2D-h26D3 VL first (bispecific antibody, human IgG1, kappa)
heavy 1: not shown
heavy 2: not shown
light: B1 light
notes: Knob-into-hole antibody; also called Gen 2D construct, VL first
